Laboratory results taken from paper PMC3814720, “Pro-inflammatory cytokines can act as intracellular modulators of commensal bacterial virulence”.

Molecular target: TNF-α (human, UniProt P01375 77-233)
Assay: EMSA; 5-20 uM TNF-α
Conditions: chain copies: 3; label: 32P 5'-end; blunt

Sequence of TNF-α (P01375 77-233): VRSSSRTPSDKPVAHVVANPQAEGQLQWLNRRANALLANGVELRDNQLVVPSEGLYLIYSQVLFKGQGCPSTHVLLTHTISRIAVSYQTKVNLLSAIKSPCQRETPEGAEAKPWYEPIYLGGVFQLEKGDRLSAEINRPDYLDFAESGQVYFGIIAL

B1: app internal region (dsDNA)
DNA 1: GTTTTTTACCAACAGGAGGCTCATTTGGCGACAGTGGCTCACCAATGTTTATCTATGATGCCCAAAAGCAAAAGTG
DNA 2: CACTTTTGCTTTTGGGCATCATAGATAAACATTGGTGAGCCACTGTCGCCAAATGAGCCTCCTGTTGGTAAAAAAC
binding result: no binding
